Experimental data published in patent publication US20220048993A1 (published 2022).

How the values were obtained:
[1] = biological target: T1, cynomolgus monkey FcRH5, full-length (cynomolgus monkey); test: FACS, SVT2 cells, TDB 3 µg/ml
T1 construct: also called cyno FcRH5; Cynomolgus FcRH5
T1 chain: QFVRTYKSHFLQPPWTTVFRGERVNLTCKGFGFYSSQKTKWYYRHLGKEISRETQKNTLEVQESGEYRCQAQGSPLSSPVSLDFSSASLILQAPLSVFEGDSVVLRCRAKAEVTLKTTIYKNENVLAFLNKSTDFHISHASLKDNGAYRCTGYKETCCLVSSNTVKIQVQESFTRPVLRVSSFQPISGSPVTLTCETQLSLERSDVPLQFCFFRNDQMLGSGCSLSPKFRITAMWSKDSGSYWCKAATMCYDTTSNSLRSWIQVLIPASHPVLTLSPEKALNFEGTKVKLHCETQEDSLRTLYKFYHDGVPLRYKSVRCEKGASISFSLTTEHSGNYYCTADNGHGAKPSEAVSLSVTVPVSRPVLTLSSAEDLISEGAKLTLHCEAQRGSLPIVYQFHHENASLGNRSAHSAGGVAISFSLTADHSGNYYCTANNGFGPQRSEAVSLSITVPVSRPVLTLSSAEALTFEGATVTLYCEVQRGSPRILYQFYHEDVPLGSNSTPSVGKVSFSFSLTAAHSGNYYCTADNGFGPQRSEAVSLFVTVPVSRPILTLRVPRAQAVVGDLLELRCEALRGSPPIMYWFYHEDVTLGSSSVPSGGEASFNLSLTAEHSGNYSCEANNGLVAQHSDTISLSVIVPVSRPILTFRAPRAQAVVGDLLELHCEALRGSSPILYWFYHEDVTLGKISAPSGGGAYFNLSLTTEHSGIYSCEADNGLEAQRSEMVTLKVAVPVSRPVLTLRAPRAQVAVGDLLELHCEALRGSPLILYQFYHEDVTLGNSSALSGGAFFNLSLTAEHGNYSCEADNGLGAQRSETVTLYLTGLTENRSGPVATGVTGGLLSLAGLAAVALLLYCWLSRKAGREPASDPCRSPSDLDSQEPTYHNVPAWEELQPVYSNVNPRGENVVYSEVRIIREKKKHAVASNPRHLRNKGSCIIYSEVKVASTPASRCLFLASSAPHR
Description: Human FcRH5, cyno FcRH5, human FcRH1, FcRH2, FcRH3, and FcRH4 transfected mouse SVT2 cells were used to test binding and cross-reactivity of FcRH5 TDBs. The method was carried out as follows. Cultured SVT2 cells were lifted using non-enzyme cell dissociation buffer (Sigma, #C5914). 1×10⁵ cells were suspended in 100 μL and incubated with FcRH5 TDBs at 3 μg/ml. Cells were then washed with FACS buffer (PBS, 1% BSA, 2 mM EDTA) and incubated with goat-anti-human Fc PE (Jackson Immunoresearch, #109-116-170) at a 1:100 dilution. Cells were washed twice with FACS buffer before flow cytometry analysis was carried out on a FACSCalibur.

[2] = biological target: T2, soluble cynomolgus FcRH5 protein fragment (cynomolgus monkey); test: SPR, hIgG capture, 1:1 model
T2 chain: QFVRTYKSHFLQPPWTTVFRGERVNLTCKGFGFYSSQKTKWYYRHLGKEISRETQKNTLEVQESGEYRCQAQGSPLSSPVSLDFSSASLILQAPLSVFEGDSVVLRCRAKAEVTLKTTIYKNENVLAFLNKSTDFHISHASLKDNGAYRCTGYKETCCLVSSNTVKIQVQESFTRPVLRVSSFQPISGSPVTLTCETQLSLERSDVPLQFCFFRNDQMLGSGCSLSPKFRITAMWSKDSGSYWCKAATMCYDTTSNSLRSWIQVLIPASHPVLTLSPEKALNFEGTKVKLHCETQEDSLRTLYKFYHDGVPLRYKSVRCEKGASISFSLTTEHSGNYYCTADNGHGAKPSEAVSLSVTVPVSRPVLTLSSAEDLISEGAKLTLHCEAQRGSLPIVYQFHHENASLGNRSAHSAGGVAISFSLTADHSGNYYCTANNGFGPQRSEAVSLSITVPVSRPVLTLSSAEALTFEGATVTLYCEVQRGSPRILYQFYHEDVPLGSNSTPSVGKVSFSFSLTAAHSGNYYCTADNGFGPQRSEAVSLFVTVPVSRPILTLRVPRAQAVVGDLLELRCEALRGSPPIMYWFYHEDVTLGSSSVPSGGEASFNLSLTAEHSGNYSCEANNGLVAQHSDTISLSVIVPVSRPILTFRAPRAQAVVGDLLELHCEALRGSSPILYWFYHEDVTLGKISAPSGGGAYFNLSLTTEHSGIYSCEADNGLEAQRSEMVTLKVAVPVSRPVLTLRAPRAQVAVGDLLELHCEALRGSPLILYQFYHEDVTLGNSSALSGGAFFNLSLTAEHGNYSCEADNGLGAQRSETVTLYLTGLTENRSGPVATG

[3] = biological target: T1, cynomolgus monkey FcRH5, full-length; test: flow cytometry, SVT2-cyno FcRH5 cells
[4] = biological target: T2, soluble cynomolgus FcRH5 protein …; test: BIACORE (FIG. 15)
[5] = biological target: T2, soluble cynomolgus FcRH5 protein …; test: BIACORE, hIgG capture, 1:1 model, monovalent
[6] = biological target: T3, human FcRH5, full-length (human, UniProt Q96RD9 16-977); test: cell-based or functional assay
T3 sequence: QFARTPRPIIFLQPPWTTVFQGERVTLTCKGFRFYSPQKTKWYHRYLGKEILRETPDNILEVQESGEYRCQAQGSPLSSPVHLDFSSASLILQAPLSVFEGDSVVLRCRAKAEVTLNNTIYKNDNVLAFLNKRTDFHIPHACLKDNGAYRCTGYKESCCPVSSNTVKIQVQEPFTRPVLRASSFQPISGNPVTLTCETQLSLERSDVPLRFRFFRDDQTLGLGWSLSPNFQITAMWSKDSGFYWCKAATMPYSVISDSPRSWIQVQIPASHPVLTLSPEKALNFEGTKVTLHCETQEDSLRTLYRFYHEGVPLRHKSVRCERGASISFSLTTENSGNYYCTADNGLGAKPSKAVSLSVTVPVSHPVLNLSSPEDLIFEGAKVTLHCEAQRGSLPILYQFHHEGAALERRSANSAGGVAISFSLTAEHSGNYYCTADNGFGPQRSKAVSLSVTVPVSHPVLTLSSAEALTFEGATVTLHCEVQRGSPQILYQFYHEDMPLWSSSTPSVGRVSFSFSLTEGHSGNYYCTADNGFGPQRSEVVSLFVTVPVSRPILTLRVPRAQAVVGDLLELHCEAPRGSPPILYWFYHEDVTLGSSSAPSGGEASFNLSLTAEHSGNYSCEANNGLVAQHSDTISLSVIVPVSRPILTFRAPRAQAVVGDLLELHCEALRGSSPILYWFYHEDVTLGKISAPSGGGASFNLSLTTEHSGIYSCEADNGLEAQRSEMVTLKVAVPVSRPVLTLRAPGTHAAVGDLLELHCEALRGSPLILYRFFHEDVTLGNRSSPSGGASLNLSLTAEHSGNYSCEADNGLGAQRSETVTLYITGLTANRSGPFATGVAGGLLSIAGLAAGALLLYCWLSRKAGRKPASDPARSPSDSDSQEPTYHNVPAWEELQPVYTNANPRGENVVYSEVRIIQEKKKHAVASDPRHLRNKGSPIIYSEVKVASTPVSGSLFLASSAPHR

[7] = biological target: T4, recombinant cynomolgus E11 protein (cynomolgus monkey); test: SPR, mIgG2a captured, monovalent
T4 chain: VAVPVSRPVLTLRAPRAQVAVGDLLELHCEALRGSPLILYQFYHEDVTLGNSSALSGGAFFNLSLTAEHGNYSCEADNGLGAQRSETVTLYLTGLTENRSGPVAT

[8] = biological target: T4, recombinant cynomolgus E11 protein; test: SPR, mIgG2a captured, monovalent

B1: 1G7.v1.4/38E4.v1 TDB (bispecific antibody, V domains shown)
VH 1: EVQLVESGPGLVKPSETLSLTCTVSGFSLTRFGVHWVRQPPGKGLEWLGVIWRGGSTDYNAAFMSRLTISKDNSKNQVSLKLSSVTAADTAVYYCSNHYYGSSDYALDNWGQGTLVTVSS
VL 1: DIQMTQSPSSLSASVGDRVTITCKASQDVRNLVVWFQQKPGKAPKLLIYSGSYRYSGVPSRFSGSGSGTDFTLTISSLQPEDFATYYCQQHYSPPYTFGQGTKVEIK
VH 2: EVQLVQSGAEVKKPGASVKVSCKASGFTFTSYYIHWVRQAPGQGLEWIGWIYPENDNTKYNEKFKDRVTITADTSTSTAYLELSSLRSEDTAVYYCARDGYSRYYFDYWGQGTLVTVSS
VL 2: DIVMTQSPDSLAVSLGERATINCKSSQSLLNSRTRKNYLAWYQQKPGQSPKLLIYWTSTRKSGVPDRFSGSGSGTDFTLTISSLQAEDVAVYYCKQSFILRTFGQGTKVEIK
notes: knob-into-hole full-length TDB; also called 1G7.v1.4 TDB
binding result [1]: binds | Kd [2]: 6.3 nM | koff [2]: 0.0008 s⁻¹ | kon [2]: 100000 M⁻¹ s⁻¹

B2: 1G7.v85/38E4.v1 TDB (bispecific antibody, V domains shown)
VH 1: EVQLVESGPGLVKPSETLSLTCTVSGFSLTRFGVHWVRQPPGKGLEWLGVIWRGGSTDYNAAFVSRLTISKDNSKNQVSLKLSSVTAADTAVYYCSNHYYGSSDYALDNWGQGTLVTVSS
VL 1: DIQMTQSPSSLSASVGDRVTITCKASQDVRNLVVWFQQKPGKAPKLLIYSGSYRYSGVPSRFSGSGSGTDFTLTISSLQPEDFATYYCQQHYSPPYTFGQGTKVEIK
VH 2: EVQLVQSGAEVKKPGASVKVSCKASGFTFTSYYIHWVRQAPGQGLEWIGWIYPENDNTKYNEKFKDRVTITADTSTSTAYLELSSLRSEDTAVYYCARDGYSRYYFDYWGQGTLVTVSS
VL 2: DIVMTQSPDSLAVSLGERATINCKSSQSLLNSRTRKNYLAWYQQKPGQSPKLLIYWTSTRKSGVPDRFSGSGSGTDFTLTISSLQAEDVAVYYCKQSFILRTFGQGTKVEIK
notes: knob-into-hole full-length TDB; also called 1G7.v85 TDB; FcRH5 TDB
binding result [3]: binds | Kd [4]: 7.8 nM | Kd [5]: 6.76 nM | Kd [2]: 6.8 nM | koff [2]: 0.0008 s⁻¹ | kon [2]: 100000 M⁻¹ s⁻¹ | killing of MOLP-2 cells, EC50 [6]: 58 pM | killing of SVT2-FcRH5 cells, IC50, in DMSO [6]: 6 pM | killing of SVT2-FcRH5 cells, IC50, in buffer [6]: 7 pM | killing of SVT2-FcRH5 cells, IC50, with 0.1 µM dexamethasone [6]: 16 pM | killing of SVT2-FcRH5 cells, IC50, with 1 µM dexamethasone [6]: 25 pM | killing of human bone marrow plasma cells, EC50 [6]: 0.085 to 0.18 nM

B3: hu1G7.v93/38E4.v1 TDB (bispecific antibody, V domains shown)
VH 1: EVQLVESGPGLVKPSETLSLTCTVSGFSTTRFGVHWVRQPPGKGLEWLGVIWRGGSTDYNAAFVSRLTISKDNSKNQVSLKLSSVTAADTAVYYCSNHYYGSPDYALDNWGQGTLVTVSS
VL 1: DIQMTQSPSSLSASVGDRVTITCKASQDVSNLVVWFQQKPGKAPKLLIYSGSYRYSGVPSRFSGSGSGTDFTLTISSLQPEDFATYYCQQHYSPPYTFGQGTKVEIK
VH 2: EVQLVQSGAEVKKPGASVKVSCKASGFTFTSYYIHWVRQAPGQGLEWIGWIYPENDNTKYNEKFKDRVTITADTSTSTAYLELSSLRSEDTAVYYCARDGYSRYYFDYWGQGTLVTVSS
VL 2: DIVMTQSPDSLAVSLGERATINCKSSQSLLNSRTRKNYLAWYQQKPGQSPKLLIYWTSTRKSGVPDRFSGSGSGTDFTLTISSLQAEDVAVYYCKQSFILRTFGQGTKVEIK
notes: knob-into-hole full-length TDB; also called 1G7.v93 TDB
Kd [4]: 8.1 nM

B4: 15G8 (antibody, mouse IgG2a, V domains shown)
VH: EVQLQQSGPELVKPGASVKMSCKASGYTFTNYVIHWMKQKPGQGLEWIGYISPYNDYTKYNEKFEGKATLTSDKSSNTAYMELSSLTSEDSAVYYCARRDYYGSSDYWGQGTTLTVSS
VL: QIVLTQSPAIMSASPGEKVTMTCSASSSVDYMHWYQQKSGTSPKKWIYDTSKLASGVPARFSGSGSGTSYSLTIGSMEAEDAATYYCQQWSSNPPTFGGGTKLEIK
notes: mouse mAb, Campaign C; recombinant murine IgG2a for BIACORE; also called mAb 15G8
KD difference between human and cynomolgus E11 domains [7]: ~20 fold | Kd [8]: 9.1 nM

B5: hu1G7.v1.4 (hIgG1) (antibody, V domains shown)
VH: EVQLVESGPGLVKPSETLSLTCTVSGFSLTRFGVHWVRQPPGKGLEWLGVIWRGGSTDYNAAFMSRLTISKDNSKNQVSLKLSSVTAADTAVYYCSNHYYGSSDYALDNWGQGTLVTVSS
VL: DIQMTQSPSSLSASVGDRVTITCKASQDVRNLVVWFQQKPGKAPKLLIYSGSYRYSGVPSRFSGSGSGTDFTLTISSLQPEDFATYYCQQHYSPPYTFGQGTKVEIK
notes: human IgG1
Kd [2]: 7.7 nM | koff [2]: 0.001 s⁻¹ | kon [2]: 100000 M⁻¹ s⁻¹

B6: hu1G7.v85 (hIgG1) (antibody, V domains shown)
VH: EVQLVESGPGLVKPSETLSLTCTVSGFSLTRFGVHWVRQPPGKGLEWLGVIWRGGSTDYNAAFVSRLTISKDNSKNQVSLKLSSVTAADTAVYYCSNHYYGSSDYALDNWGQGTLVTVSS
VL: DIQMTQSPSSLSASVGDRVTITCKASQDVRNLVVWFQQKPGKAPKLLIYSGSYRYSGVPSRFSGSGSGTDFTLTISSLQPEDFATYYCQQHYSPPYTFGQGTKVEIK
notes: bivalent human IgG1; also called hu1G7.v1.4.M64V
Kd [2]: 7.2 nM | koff [2]: 0.001 s⁻¹ | kon [2]: 100000 M⁻¹ s⁻¹

B7: 17B1 (antibody, mouse IgG2a, V domains shown)
VH: QVQLQQSGPELVRPGVSVKISCKGSGYTFTHYAMHWVKQSHTKSLEWIGMISSSSGNTNFNQKFMDKATMTVDKSSTTAYLELARLTFGDSAIYYCARWSYYALFDYWGQGTTVTVSS
VL: ENVLTQSPAIMSASPGEKVTMTCSADSSVDYIHWYQQKSNTSPKLWIYDTSKLASGVPGRFSGSGSGNSYSLTISSMEAEDFATYYCFQGSGYPLTFGSGTKLELK
notes: mouse mAb, Campaign C; recombinant murine IgG2a for BIACORE
Kd [8]: 27 nM
